Entries after “also recorded” stand apart in the source; their conditions may differ.
Key:
purified T cells = test: Addition to purified T cells in the absence of antigen-presenting cells; format: cell-based, mouse; conditions: no antigen-presenting cells
OTII T cells [1] = test: Adoptive transfer of OTII cells, subcutaneous immunization, FACS count of donor T cells; format: in vivo, mouse; conditions: 200 ng subcutaneous
Text: FIGS. 6A, 6B, and 6C are a schematic diagram (FIG. 6A) and a series of flow cytometry dot plots (FIGS. 6B and 6C). FIG. 6A is a schematic diagram that illustrates the adoptive transfer technique: CD4^+CD45.2^+ ovalbumin-specific T cells are adoptively transferred to congenic CD45.1^+ recipients. After immunization the draining lymph nodes and other lymphoid organs (e.g., the spleen) are isolated. Cells from these tissues are stained with an antibody against the CD45.2 isoform and the OTII T cell receptor to identify the original donor cells. […] B6.Ly5.2/Cr mice were injected intravenously with 2×10^7 OTII splenocytes. 24 hours later the mice were injected subcutaneously with PBS, OVA (200 ng), or (OVA)-3-1 (200 ng). […] Each panel represents two or more experiments.
In order to determine the immunological implications of (OVA)-3-1 internalization and presentation by dendritic cells in vivo, the technique of adoptive transfer (FIG. 6A) was employed to track the T cell responses to DC presented antigen^15. […]
CD45.2^+ VA-specific T cells were transferred to B6.Ly5.2/Cr (CD45.1^+) recipients and, after a twenty-four hour rest period, the mice were immunized subcutaneously with PBS, OVA or (OVA)-3-1. After seventy-two hours, cells were isolated from the draining inguinal lymph nodes and counted by FACS to determine the extent of OTII cell division induced by the immunization regimen (FIG. 6B). […]

OTII T cells [2] = test: Adoptive transfer, immunization, OVA peptide/CFA rechallenge at day 8, OTII cell count at day ten; format: in vivo, mouse
Method: FIGS. 8A and 8B are a series of dot plots (FIG. 8A) and a graph (FIG. 8B) showing that the oligosaccharide-mediated targeting of steady state dendritic cells leads to T cell tolerance. […] 2×10^7 OTII splenocytes were adoptively transferred into B6.Ly5.2/Cr recipients and then immunized by subcutaneous injection with PBS, OVA (200 ng), (OVA)-3-1 (200 ng), (OVA)-3-1 (200 ng)+mBSA (50 μg) or OVA peptide (100 μg) in Incomplete Freund's Adjuvant. At 8 days after these initial immunizations, mice received an antigenic rechallenge of OVA peptide (100 μg) in Complete Freund's Adjuvant. On day ten mice were sacrificed and cells were isolated from the draining lymph node, total T cells were purified by negative selection and the number of OTII T cells were counted by FACS as described for FIG. 6. […] Purified T cells from each experimental group were seeded at 3×10^5 cells/well with purified […] dendritic cells (9×10^4/well) and were incubated for twenty-four hours±OVA peptide (100 μg mL^−1) with [^3H]thymidine (1 μCi) added for the last ten hours. Prior to [^3H]thymidine addition, an aliquot of supernatant was removed for IFN-γ determination by ELISA.
At three days post-immunization, antibody-based targeting of the DEC-205 receptor led to a 6.5-fold enhancement of T cell activation relative to non-targeted antigen^2. After seven days, however, the activated T cell population diminished in number by 88% and the remaining T cells were unresponsive to systemic challenge of antigen in the highly stimulatory adjuvant CFA. […] To more fully understand the immunological consequences of these enhancements, OVA peptide (100 μg) was administered in CFA at eight days post-antigen immunization and the T cells' ability to respond to DC-presented peptide in vitro was assayed two days later (FIGS. 8A and 8B)^2: A positive control for T cell tolerance, consisting of a high dose administration of OVA peptide (100 μg) in Incomplete Freund's Adjuvant was also included. This regimen has been shown in a number of different studies to led to a state of T cell unresponsiveness upon antigen rechallenge^24,25.

[3] = two days post-antigen rechallenge in CFA (day ten)

B1: (OVA)-3-1: ovalbumin modified via SMCC with nonasaccharide 3-1, average of three saccharides per OVA (conjugate)
chain: GSIGAASMEFCFDVFKELKVHHANENIFYCPIAIMSALAMVYLGAKDSTRTQINKVVRFDKLPGFGDSIEAQCGTSVNVHSSLRDILNQITKPNDVYSFSLASRLYAEERYPILPEYLQCVKELYRGGLEPINFQTAADQARELINSWVESQTNGIIRNVLQPSSVDSQTAMVLVNAIVFKGLWEKAFKDEDTQAMPFRVTEQESKPVQMMYQIGLFRVASMASEKMKILELPFASGTMSMLVLLPDEVSGLEQLESIINFEKLTEWTSSNVMEERKIKVYLPRMKMEEKYNLTSVLMAMGITDVFSSSANLSGISSAESLKISQAVHAAHAEINEAGREVVGSAEAGVDAASVSEEFRADHPFLFCIKHIATNAVLFFGRCVSP
T cell proliferation (purified T cells): did not led to T cell proliferation | total OTII cell number in the draining lymph node compared to soluble OVA (OTII T cells [1]; 72 h): doubling; also recorded: promotes expansion | total OTII cell number in the spleen (OTII T cells [1]; 3 days): appreciable increase | number of OTII T cells compared with OVA immunized mice (OTII T cells [2]; day ten after immunization): much greater number | T cell deletion in vivo (OTII T cells [2]; mouse, in vivo): not observed | number of OTII cells relative to the saline control group (OTII T cells [2]; [3]): 6 fold | number of OTII cells relative to unmodified (soluble) OVA (OTII T cells [2]; [3]): 7.8 fold
